The target of data set [1] is recombinant His-tagged L5 (Trypanosoma brucei). Briefly: co-IP; recombinant immune capture as above, with in vitro-transcribed 5S rRNA added before the proteins at an equal molar ratio; Western blot.
The target in data set [2] is recombinant His-tagged P34 (Trypanosoma brucei). The data set is described as above.
In data set [3] the test system is TbMex67 (Trypanosoma brucei). The data set can be described thus: filter binding. As to conditions: TbMex67 alone; 10 mM Tris-HCl pH 7.4, 100 mM NaCl, 1 mM EDTA, 100 ug/ml BSA, 0.05 nM RNA, 0-200 nM protein, 30 min, room temperature; RNA preheated 55 C 10 min then ice.
Data set [4] deals with TbMex67;TbMtr2 (Trypanosoma brucei;Trypanosoma brucei). Briefly: filter binding. As to conditions: TbMex67 and TbMtr2 preincubated together; Kd in total TbMex67; 10 mM Tris-HCl pH 7.4, 100 mM NaCl, 1 mM EDTA, 100 ug/ml BSA, 0.05 nM RNA, 0-200 nM protein, 30 min, room temperature; RNA preheated 55 C 10 min then ice.
In data set [5] the target is ribosomal protein L5, endogenous (Trypanosoma brucei brucei strain 427 (endogenous in procyclic cells)). Briefly: co-IP; in vivo immune capture: 100 ug procyclic whole-cell extract with anti-P34/P37 or anti-L5 cross-linked protein A Dynabeads, PBS with 10 mg/ml BSA, 1 h at 4°C, without RNase A; Western blot for TbMex67; input set at 1.0.
Data set [6] concerns the target P34/P37, endogenous. The description is as above.
The target in data set [7] is ribosomal protein L5, endogenous (Trypanosoma brucei brucei strain 427 (endogenous in procyclic cells)). The data set can be described thus: co-IP; in vivo immune capture as above, with RNase A (50 ug) added to the whole-cell extract; Western blot for TbMex67; input set at 1.0.
The target in data set [8] is P34/P37, endogenous. Described as above.

On to “recombinant His-tagged TbMex67 (natural protein)”, for which the ratio of TbMex67 in the pellet with 5S rRNA to without in data set [1] and in data set [2] was 0.94 in each case.

Consider 5S rRNA, for which the Kd in data set [3] is 41 nM; in data set [4], 10 nM.

“Trypanosoma brucei Mex67 (TbMex67), endogenous (natural protein)” returned a fraction of the total amount of TbMex67 associated with L5 (relative to input set at 1.0) in data set [5] of 0.43. This substance had a relative total amount of TbMex67 in the pellet fraction (relative to input set at 1.0) in the data set with P34/P37, endogenous [6] of 0.35. This substance gave an amount of TbMex67 in the pellet, with RNase A (relative to input set at 1.0) in data set [7] of 0.8. This substance showed a relative amount of TbMex67 in the pellet, with RNase A (relative to input set at 1.0) with P34/P37, endogenous [8] of 0.53.

The values above are taken from paper PMC6695518.
